We go through two molecules from PMC2632936 (Journal of molecular biology, 2008).

For data set [1], the target named is Vps4_(ΔMIT, E233Q) (solution experiments) (S. cerevisiae) (UniProt P52917). Kind of data set: AUC.
The data set “AUC” concerns the molecule itself. In words: AUC.

The term stoichiometry N denotes a count of units in the complex or per binding partner. A word on the Kd: it is the equilibrium constant for the complex coming apart.

“Vps4_(ΔMIT, E233Q) (solution experiments) (from UniProt P52917 104-437) (domain or fragment)”: the stoichiometry N in data set [1] is 2.19.

B1: full length Vps4_(E233Q) (S. cerevisiae) (enzyme, UniProt P52917 1-437, looked up)
chain: MSTGDFLTKGIELVQKAIDLDTATQYEEAYTAYYNGLDYLMLALKYEKNPKSKDLIRAKFTEYLNRAEQLKKHLESEEANAAKKSPSAGSGSNGGNKKISQEEGEDNGGEDNKKLRGALSSAILSEKPNVKWEDVAGLEGAKEALKEAVILPVKFPHLFKGNRKPTSGILLYGPPGTGKSYLAKAVATEANSTFFSVSSSDLVSKWMGESEKLVKQLFAMARENKPSIIFIDQVDALTGTRGEGESEASRRIKTELLVQMNGVGNDSQGVLVLGATNIPWQLDSAIRRRFERRIYIPLPDLAARTTMFEINVGDTPCVLTKEDYRTLGAMTEGYSGSDIAVVVKDALMQPIRKIQSATHFKDVSTEDDETRKLTPCSPGDDGAIEMSWTDIEADELKEPDLTIKDFLKAIKSTRPTVNEDDLLKQEQFTRDFGQEGN
Consider B1, for which, in the data set “AUC”, the Kd is below 5 µM and the “stoichiometry N” value worked out at 1.97.
